Among the data in paper PMC6511404 are stoichiometry N values, retold here.

Where two headings read alike, the source gives them in different places.

Broadly, the stoichiometry N is the number of molecules, sites or subunits per partner or assembly.

Assay [1] concerns the target E. coli enolase, detagged (His tag removed by thrombin) (E. coli). Briefly: crystal structure.
For assay [2] the target is unchanged. The assay is described as follows: crystal structure. The source holds these as a separate data set.

Chain of E. coli enolase, detagged (His tag removed by thrombin) (enzyme) (A1AEW7 2-432): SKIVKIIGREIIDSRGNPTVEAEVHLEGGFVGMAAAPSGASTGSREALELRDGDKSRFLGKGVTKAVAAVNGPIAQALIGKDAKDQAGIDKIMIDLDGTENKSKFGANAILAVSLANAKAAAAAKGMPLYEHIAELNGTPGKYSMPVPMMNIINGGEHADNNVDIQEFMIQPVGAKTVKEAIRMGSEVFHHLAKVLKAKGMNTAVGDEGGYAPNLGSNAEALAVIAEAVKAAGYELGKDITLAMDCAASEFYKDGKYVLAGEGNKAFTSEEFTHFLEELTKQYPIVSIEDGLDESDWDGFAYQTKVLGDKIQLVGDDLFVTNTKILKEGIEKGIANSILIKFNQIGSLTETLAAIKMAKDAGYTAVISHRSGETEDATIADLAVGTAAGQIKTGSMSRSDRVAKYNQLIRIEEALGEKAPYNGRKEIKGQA

As for “E. coli enolase, detagged (His tag removed by thrombin) (enzyme)”, the stoichiometry N turned out to be 2 in assay [1] and 6 in assay [2].
